# Data reported in patent US20250290928A1, “METHOD, KIT AND DEVICE FOR DETECTING EXTRACELLULAR VESICLES” (priority 2022, published 2025).
# No end group written: not given here. *: point of attachment. 5FAM = O=C1OC2(c3ccc(O)cc3Oc3cc(O)ccc32)c2ccc(C(=O)*)cc21; TF3 = Tide Fluor 3, fluorescent dye; TQ2 = quencher; TQ3 = quencher
# How the values were obtained:
# [1] = target: T1, MMP14 in the MDA-MB-231-derived extracellular vesicles (Homo sapiens, UniProt P50281); assay: Digital detection of MDA-MB-231-derived extracellular vesicles through MMP14 activity in wells (microcompartments); type: biochemical; conditions: for Expected value λ / Number of positives / Positive ratio: reporter 5 μM, 30° C.
# T1 construct: in terms of intact MMP14 with a molecular weight of 70 kDa
# Description: The concentration of the solution is 6.7 μg/mL.
# 100 μL of the MMP14 detection solution was added to 100 μL of the sample to provide a reaction solution for wells. […] 100 μL of 200 μL of the prepared reaction solution for wells was used in the measurement of MMP14 activity with a 96-well plate.
# Next, the wells were filled with the reaction solution by leaving the well array 200 to stand under reduced pressure to degas the space 205. After that, the space 205 was fed with hydrophobic solvents to be sealed. Fluorinated oils AsahiKlin AE-3000 (manufactured by AGC Inc.) and Fomblin Y-25 (manufactured by Solvay S.A.) were used as the hydrophobic solvents. A fluorinated oil Simoa (trademark) SR-X Sealing Oil: 102767 (manufactured by Quanterix Corporation) was further used as another hydrophobic solvent.
# Well diameter: 4.25 μm Well depth: 3.25 μm Well capacity: 50 fL Number of wells in array: 239,000 Array range: 3 mm×4 mm
# The concentration of the solution is 20 μg/mL. […] The concentration of the solution was set to x1, and 10-fold serial dilution was performed to prepare standard samples with five concentrations.
# Next, the wells were filled with the reaction solution by leaving the well array 200 to stand under reduced pressure to degas the space 205. After that, the space 205 was fed with hydrophobic solvents to be sealed.
# The concentration of the solution is 20 μg/mL. […] The concentration of the solution was set to x1, and 3-fold serial dilution was performed to prepare standard samples with three concentrations.
# The concentration of the solution is 20 μg/mL. […] The concentration of the solution was set to x1, and 2-fold serial dilution was performed to prepare standard samples with four concentrations.
# The concentration of the solution is 5 μg/mL.
# 50 μL of the MMP14 detection solution was added to 50 μL of the sample to provide a reaction solution for wells.
# 50 μL of each of the MMP14 detection solutions was added to 50 μL of the sample to provide a reaction solution for wells.
# The concentration of the solution is 6.7 µg/mL.
# [2] = target: T1, MMP14 in the MDA-MB-231-derived extracellular vesicles; assay: Evaluation of MMP14 activity of MDA-MB-231-derived extracellular vesicles with 96-well plate; type: biochemical
# Description: A relative fluorescence unit difference ΔRFU was calculated by subtracting the measured value of the sample for BG measurement from the measured value of each of the samples.
# The concentration of the solution is 41.7 μg/mL. The concentration of the solution was set to x1, and 2-fold serial dilution was performed to prepare standard samples with six concentrations.
# 50 μL of the MMP14 detection solution was added to 50 μL of each of the samples, a reaction was performed at 37° C., and MMP14 activity was evaluated.
# The concentration of the solution is 10 μg/mL.
# 50 μL of each of the MMP14 detection solutions was added to 50 μL of each of the samples, a reaction was performed at 37° C., and MMP14 activity was evaluated. […]
# The concentration of the solution is 20 μg/mL. The concentration of the solution was set to x1, and 3-fold serial dilution was performed to prepare standard samples with three concentrations.
# The concentration of the solution is 8 μg/mL.
# 50 μL of each of the MMP14 detection solutions was added to 50 μL of the sample, a reaction was performed at 37° C., and MMP14 activity was evaluated. […]
# 50 μL of the MMP14 detection solution was added to 50 μL of each of the samples, a reaction was performed at 30° C., and MMP14 activity was evaluated.
# The MMP14 activity of the extracellular vesicles was evaluated with a 96-well plate (137101). A fluorescence intensity was measured with a fluorescence plate reader (Synergy) at 30° C. every 5 minutes for 2 hours. For measurement wavelengths, an excitation wavelength of 545±20 nm and a fluorescence wavelength of 588±20 nm were used. A relative fluorescence unit difference (ΔRFU) was calculated by subtracting the measured value of the sample for BG measurement from the measured value of each of the samples.
# 50 μL of each of the MMP14 detection solutions was added to 50 μL of each of the samples, a reaction was performed at 30° C., and MMP14 activity was evaluated.
# [3] = Example 38, 4 hr, at a concentration of x1, 50 fL
# [4] = Example 38, 24 hr, at a concentration of x1, 50 fL
# [5] = Example 38, EV 2.5 μg/mL, 24 hr
# [6] = Example 37, EV 5 μg/mL, reporter 5 μM, buffer (4)
# [7] = MP, 1.25 μM with 5 μM Custom #2TF3
# [8] = MP, 2.5 μM with 2.5 μM Custom #2TF3
# [9] = Example 42, EV 2.5 μg/mL, 4 hr, TRITC filter
# [10] = Example 42, EV 2.5 μg/mL, 24 hr, TRITC filter
substance,measurement,setting,value
TQ2-DLPAGLQARK(5-FAM) (TQ2-DLPAGLQARK(5FAM)) [Custom #14],Expected value λ (×1),"[1]; Example 38, 4 hr",0.9841
same,Extracellular vesicle concentration,[1]; [3],1.968e+10 mL⁻¹
same,Expected value λ (×1),"[1]; Example 38, 24 hr",1.5709
same,Extracellular vesicle concentration,[1]; [4],3.142e+10 mL⁻¹
same,Expected value λ,"[1]; Example 38, EV 2.5 μg/mL, 4 hr",0.246
same,Number of positives,"[1]; Example 38, EV 2.5 μg/mL, 4 hr","6,120"
same,Positive ratio,"[1]; Example 38, EV 2.5 μg/mL, 4 hr",0.2181
same,Expected value λ,[1]; [5],0.3927
same,Number of positives,[1]; [5],"9,120"
same,Positive ratio,[1]; [5],0.3248
same,Fluorescence change after 2 hours of reaction at 30° C.,[2]; [6],"34,878 ΔRFU"
same,Fluorescence change after 2 hours of reaction at 30° C.,[2]; [7],"9,504 ΔRFU"
same,Fluorescence change after 2 hours of reaction at 30° C.,[2]; [8],"14,104 ΔRFU"
TQ2-WPHGSLQAAK(5-FAM) (TQ2-WPHGSLQAAK(5FAM)) [Custom #16],Expected value λ (×1),"[1]; Example 38, 4 hr",0.06766
same,Extracellular vesicle concentration,[1]; [3],1.353e+09 mL⁻¹
same,Expected value λ (×1),"[1]; Example 38, 24 hr",0.3923
same,Extracellular vesicle concentration,[1]; [4],7.845e+09 mL⁻¹
same,Expected value λ,"[1]; Example 38, EV 2.5 μg/mL, 4 hr",0.01692
same,Number of positives,"[1]; Example 38, EV 2.5 μg/mL, 4 hr",471
same,Positive ratio,"[1]; Example 38, EV 2.5 μg/mL, 4 hr",0.01677
same,Expected value λ,[1]; [5],0.09807
same,Number of positives,[1]; [5],"2,623"
same,Positive ratio,[1]; [5],0.09341
same,Fluorescence change after 2 hours of reaction at 30° C.,[2]; [6],"4,424 ΔRFU"
same,Fluorescence change after 2 hours of reaction at 30° C.,[2]; [7],852 ΔRFU
same,Fluorescence change after 2 hours of reaction at 30° C.,[2]; [8],"1,489 ΔRFU"
TQ2-WYPAGLRMVK(5-FAM) (TQ2-WYPAGLRMVK(5FAM)) [Custom #13],Expected value λ (×1),"[1]; Example 38, 4 hr",0.5455
same,Extracellular vesicle concentration,[1]; [3],1.091e+10 mL⁻¹
same,Expected value λ (×1),"[1]; Example 38, 24 hr",1.05
same,Extracellular vesicle concentration,[1]; [4],2.101e+10 mL⁻¹
same,Expected value λ,"[1]; Example 38, EV 2.5 μg/mL, 4 hr",0.1364
same,Number of positives,"[1]; Example 38, EV 2.5 μg/mL, 4 hr","3,573"
same,Positive ratio,"[1]; Example 38, EV 2.5 μg/mL, 4 hr",0.1275
same,Expected value λ,[1]; [5],0.2626
same,Number of positives,[1]; [5],"6,485"
same,Positive ratio,[1]; [5],0.2309
same,Fluorescence change after 2 hours of reaction at 30° C.,[2]; [6],"19,279 ΔRFU"
same,Fluorescence change after 2 hours of reaction at 30° C.,[2]; [7],"7,073 ΔRFU"
same,Fluorescence change after 2 hours of reaction at 30° C.,[2]; [8],"9,939 ΔRFU"
TF3-GGPLGLAGGK(TQ3) [Custom #2TF3],Expected value λ,[1]; [9],0.1432
same,Number of positives,[1]; [9],"3,746"
same,Positive ratio,[1]; [9],0.1334
same,Expected value λ,[1]; [10],0.1447
same,Number of positives,[1]; [10],"3,783"
same,Positive ratio,[1]; [10],0.1347
same,Expected value λ (×1),"[1]; single reporter, reaction 4 hr, at EV concentration x1",0.5727
same,Extracellular vesicle concentration,"[1]; single reporter, reaction 4 hr, at x1, from λ (×1) and 50 fL microcompartment",1.1454e+10 mL⁻¹
same,Expected value λ (×1),"[1]; single reporter, reaction 24 hr, at EV concentration x1",0.5788
same,Extracellular vesicle concentration,"[1]; single reporter, reaction 24 hr, at x1, from λ (×1) and 50 fL microcompartment",1.1576e+10 mL⁻¹
same,Fluorescence change after 2 hours of reaction at 30° C.,"[2]; Example 41, EV 5 μg/mL, reporter 5 μM, buffer (4), excitation 545±20 nm, fluorescence 588±20 nm","3,791 ΔRFU"
same,Fluorescence change after 2 hours of reaction at 30° C.,"[2]; MP, 2.5 μM Custom #2TF3 with 2.5 μM Custom #11",313 ΔRFU
same,Fluorescence change after 2 hours of reaction at 30° C.,"[2]; MP, 2.5 μM Custom #2TF3 with 2.5 μM Custom #12",319 ΔRFU
same,Fluorescence change after 2 hours of reaction at 30° C.,"[2]; MP, 2.5 μM Custom #2TF3 with 2.5 μM Custom #13",452 ΔRFU
same,Fluorescence change after 2 hours of reaction at 30° C.,"[2]; MP, 2.5 μM Custom #2TF3 with 2.5 μM Custom #14",397 ΔRFU
same,Fluorescence change after 2 hours of reaction at 30° C.,"[2]; MP, 2.5 μM Custom #2TF3 with 2.5 μM Custom #15",551 ΔRFU
same,Fluorescence change after 2 hours of reaction at 30° C.,"[2]; MP, 2.5 μM Custom #2TF3 with 2.5 μM Custom #16","1,085 ΔRFU"
same,Fluorescence change after 2 hours of reaction at 30° C.,"[2]; MP, 5 μM Custom #2TF3 with 1.25 μM Custom #11",772 ΔRFU
same,Fluorescence change after 2 hours of reaction at 30° C.,"[2]; MP, 5 μM Custom #2TF3 with 1.25 μM Custom #12",618 ΔRFU
same,Fluorescence change after 2 hours of reaction at 30° C.,"[2]; MP, 5 μM Custom #2TF3 with 1.25 μM Custom #13",814 ΔRFU
same,Fluorescence change after 2 hours of reaction at 30° C.,"[2]; MP, 5 μM Custom #2TF3 with 1.25 μM Custom #14",714 ΔRFU
same,Fluorescence change after 2 hours of reaction at 30° C.,"[2]; MP, 5 μM Custom #2TF3 with 1.25 μM Custom #15","1,023 ΔRFU"
same,Fluorescence change after 2 hours of reaction at 30° C.,"[2]; MP, 5 μM Custom #2TF3 with 1.25 μM Custom #16","1,857 ΔRFU"
TQ2-YPPRPLLARK(5-FAM) (TQ2-YPPRPLLARK(5FAM)) [Custom #15],Expected value λ (×1),"[1]; Example 38, 4 hr",0.4993
same,Extracellular vesicle concentration,[1]; [3],9.986e+09 mL⁻¹
same,Expected value λ (×1),"[1]; Example 38, 24 hr",1.145
same,Extracellular vesicle concentration,[1]; [4],2.289e+10 mL⁻¹
same,Expected value λ,"[1]; Example 38, EV 2.5 μg/mL, 4 hr",0.1248
same,Number of positives,"[1]; Example 38, EV 2.5 μg/mL, 4 hr","3,295"
same,Positive ratio,"[1]; Example 38, EV 2.5 μg/mL, 4 hr",0.1173
same,Expected value λ,[1]; [5],0.2862
same,Number of positives,[1]; [5],"6,988"
same,Positive ratio,[1]; [5],0.2489
same,Fluorescence change after 2 hours of reaction at 30° C.,[2]; [6],"16,774 ΔRFU"
same,Fluorescence change after 2 hours of reaction at 30° C.,[2]; [7],"9,131 ΔRFU"
same,Fluorescence change after 2 hours of reaction at 30° C.,[2]; [8],"10,890 ΔRFU"
MCA-Pro-Leu-Ala-Cys(p-OMeBz)-Trp-Ala-Arg(Dpa)-NH2 [MMP-14 Substrate I],detection of MMP14 activity (fluorescence intensity increased with the reaction time),"[2]; Example 3, EV 5 μg/mL, reporter 10, 5 or 2.5 μM, 37° C., 2 hours",MMP14 activity was able to be detected
TQ2-FMPLGLRGIK(5-FAM) (TQ2-FMPLGLRGIK(5FAM)) [Custom #12],Expected value λ (×1),"[1]; Example 38, 4 hr",0.5189
same,Extracellular vesicle concentration,[1]; [3],1.0377e+10 mL⁻¹
same,Expected value λ (×1),"[1]; Example 38, 24 hr",1.232
same,Extracellular vesicle concentration,[1]; [4],2.464e+10 mL⁻¹
same,Expected value λ,"[1]; Example 38, EV 2.5 μg/mL, 4 hr",0.1297
same,Number of positives,"[1]; Example 38, EV 2.5 μg/mL, 4 hr","3,416"
same,Positive ratio,"[1]; Example 38, EV 2.5 μg/mL, 4 hr",0.1216
same,Expected value λ,[1]; [5],0.308
same,Number of positives,[1]; [5],"7,423"
same,Positive ratio,[1]; [5],0.2651
same,Fluorescence change after 2 hours of reaction at 30° C.,[2]; [6],"32,801 ΔRFU"
same,Fluorescence change after 2 hours of reaction at 30° C.,[2]; [7],"13,343 ΔRFU"
same,Fluorescence change after 2 hours of reaction at 30° C.,[2]; [8],"19,102 ΔRFU"
